From US20170037111A1, “Novel peptides and combination of peptides for use in immunotherapy against ovarian cancer and other cancers” (immatics biotechnologies GmbH, priority 2015, published 2017) come the findings set out here.

This experiment addresses HLA-A*02:01 (Homo sapiens, UniProt P04439, D140Y/D185E/D98H/E176V/E277Q/G131W/G231S/I119V/I121R/I166T/I218V/L300P/L318F/N151K/N90K/P208A/P217A/Q86G/Q94H/R138H/R169H/T345S). Briefly: MHC binding assay (UV-ligand exchange, β2m ELISA, peptide exchange yield). The conditions noted are these: MHC class I binding score; binding to HLA-A*02:01 ranged by peptide exchange yield (UV-ligand exchange, β2m ELISA). The source says: Candidate peptides for T cell based therapies according to the present invention were further tested for their MHC binding capacity (affinity). The individual peptide-MHC complexes were produced by UV-ligand exchange, where a UV-sensitive peptide is cleaved upon UV-irradiation, and exchanged with the peptide of interest as analyzed. Only peptide candidates that can effectively bind and stabilize the peptide-receptive MHC molecules prevent dissociation of the MHC complexes. To determine the yield of the exchange reaction, an ELISA was performed based on the detection of the light chain (β2m) of stabilized MHC complexes. The assay was performed as generally described in Rodenko et al. (Rodenko et al., 2006).
96 well MAXISorp plates (NUNC) were coated over night with 2 ug/ml streptavidin in PBS at room temperature, washed 4× and blocked for 1h at 37° C. in 2% BSA containing blocking buffer. […] Peptide-MHC monomers of the UV-exchange reaction were diluted 100 fold in blocking buffer. Samples were incubated for 1h at 37° C., washed four times, incubated with 2 ug/ml HRP conjugated anti-β2m for 1h at 37° C., washed again and detected with TMB solution that is stopped with […]. Absorption was measured at 450 nm. Candidate peptides that show a high exchange yield (preferably higher than 50%, most preferred higher than 75%) are generally preferred for a generation and production of antibodies or fragments thereof, and/or T cell receptors or fragments thereof, as they show sufficient avidity to the MHC molecules and prevent dissociation of the MHC complexes.
(In general: An ELISA detects its analyte on a solid surface through an enzyme-linked reagent.)

Take “1 (SLMEPPAVLLL; listed as Homo sapiens) [compound 1]”: the Peptide exchange entry was “″+++″ (≧50% = +++)”.

As for “4 (GIMEHITKI; listed as Homo sapiens) [compound 4]”, the Peptide exchange entry is “″++++″ (≧75% = ++++)”. The same measure for “6 (VLVSDGVHSV; listed as Homo sapiens) [compound 6]”: “″+++″ (≧50% = +++)”; for “9 (GAAKDLPGV; listed as Homo sapiens) [compound 9]”: “″++″ (≧20% = ++)”.

Regarding “10 (FLATFPLAAV; listed as Homo sapiens) [compound 10]”, the Peptide exchange result is recorded as “″++++″ (≧75% = ++++)”.

For the substance “12 (SLWPDPMEV; listed as Homo sapiens) [compound 12]”, the Peptide exchange result is “″+++″ (≧50% = +++)”. As for “13 (YLMDESLNL; listed as Homo sapiens) [compound 13]”, the entry is “″+++″ (≧50% = +++)”. “14 (AAYGGLNEKSFV; listed as Homo sapiens) [compound 14]”: the Peptide exchange entry was “″+++″ (≧50% = +++)”. As for “15 (VLLTFKIFL; listed as Homo sapiens) [compound 15]”, the entry is “″++″ (≧20% = ++)”; as for “16 (VLFQGQASL; listed as Homo sapiens) [compound 16]”, “″+++″ (≧50% = +++)”.

On to “18 (YLVAKLVEV; listed as Homo sapiens) [compound 18]”, for which the Peptide exchange entry is given as “″++″ (≧20% = ++)”.

“20 (RMIEYFIDV; listed as Homo sapiens) [compound 20]”: the Peptide exchange entry is “″+++″ (≧50% = +++)”. On to “21 (VLDELDMEL; listed as Homo sapiens) [compound 21]”, for which the Peptide exchange result is given as “″++″ (≧20% = ++)”. As for “22 (IMEENPGIFAV; listed as Homo sapiens) [compound 22]”, the entry is “″+++″ (≧50% = +++)”; as for “23 (VLLDDIFAQL; listed as Homo sapiens) [compound 23]”, “″+++″ (≧50% = +++)”; as for “24 (SLSDGLEEV; listed as Homo sapiens) [compound 24]”, “″++″ (≧20% = ++)”. Consider “25 (FLPDEPYIKV; listed as Homo sapiens) [compound 25]”, for which the Peptide exchange result is “″+++″ (≧50% = +++)”. As for “26 (ALLELAEEL; listed as Homo sapiens) [compound 26]”, the Peptide exchange result was “″+++″ (≧50% = +++)”. Turning to “27 (ILADIVISA; listed as Homo sapiens) [compound 27]”, the Peptide exchange entry is recorded as “″+++″ (≧50% = +++)”. As for “28 (QLLDETSAITL; listed as Homo sapiens) [compound 28]”, the entry is “″+++″ (≧50% = +++)”. With “29 (KMLGIPISNILMV; listed as Homo sapiens) [compound 29]”, the Peptide exchange entry is listed as “″+++″ (≧50% = +++)”. As for “30 (LILDWVPYI; listed as Homo sapiens) [compound 30]”, the entry is “″+++″ (≧50% = +++)”; as for “31 (YLAPELFVNV; listed as Homo sapiens) [compound 31]”, “″++″ (≧20% = ++)”; as for “32 (KLDDLTQDLTV; listed as Homo sapiens) [compound 32]”, “″++″ (≧20% = ++)”.

With “33 (VLLSLLEKV; listed as Homo sapiens) [compound 33]”, the Peptide exchange result was “″++″ (≧20% = ++)”. The same measure for “34 (ILVEADSLWVV; listed as Homo sapiens) [compound 34]”: “″+++″ (≧50% = +++)”; for “35 (KINDTIYEV; listed as Homo sapiens) [compound 35]”: “″+++″ (≧50% = +++)”; for “39 (SVAPNLPAV; listed as Homo sapiens) [compound 39]”: “″+++″ (≧50% = +++)”. As for “41 (SLMPHIPGL; listed as Homo sapiens) [compound 41]”, the entry is “″+++″ (≧50% = +++)”; as for “42 (VLLQKIVSA; listed as Homo sapiens) [compound 42]”, “″+++″ (≧50% = +++)”.

Regarding “43 (VLSSLEINI; listed as Homo sapiens) [compound 43]”, the Peptide exchange entry is reported as “″++″ (≧20% = ++)”. The same measure for “44 (ILDPISSGFLL; listed as Homo sapiens) [compound 44]”: “″++″ (≧20% = ++)”; for “45 (SLWQDIPDV; listed as Homo sapiens) [compound 45]”: “″+++″ (≧50% = +++)”. Regarding “46 (ILTEENIHL; listed as Homo sapiens) [compound 46]”, the Peptide exchange result was “″+++″ (≧50% = +++)”. Take “47 (ILLSVPLLVV; listed as Homo sapiens) [compound 47]”: the Peptide exchange result is on record as “″++″ (≧20% = ++)”.

Turning to “50 (SLSELEALM; listed as Homo sapiens) [compound 50]”, the Peptide exchange result is “″+++″ (≧50% = +++)”. Turning to “51 (LLPDLEFYV; listed as Homo sapiens) [compound 51]”, the Peptide exchange result was “″++++″ (≧75% = ++++)”. As to “52 (FLLAHGLGFLL; listed as Homo sapiens) [compound 52]”, the Peptide exchange entry is given as “″++++″ (≧75% = ++++)”. The same measure for “53 (KMIETDILQKV; listed as Homo sapiens) [compound 53]”: “″++++″ (≧75% = ++++)”; for “54 (SLLEQGKEPWMV; listed as Homo sapiens) [compound 54]”: “″+++″ (≧50% = +++)”. As for “55 (SLLDLETLSL; listed as Homo sapiens) [compound 55]”, the entry is “″++++″ (≧75% = ++++)”; as for “57 (TLAELQPPVQL; listed as Homo sapiens) [compound 57]”, “″+++″ (≧50% = +++)”. “59 (IMEDIILTL; listed as Homo sapiens) [compound 59]”: the Peptide exchange result is listed as “″+++″ (≧50% = +++)”. For “62 (VLLDVSAGQLLM; listed as Homo sapiens) [compound 62]”, the Peptide exchange entry is recorded as “″++++″ (≧75% = ++++)”. The same measure for “63 (YLLPSGGSVTL; listed as Homo sapiens) [compound 63]”: “″++″ (≧20% = ++)”; for “64 (YAAPGGLIGV; listed as Homo sapiens) [compound 64]”: “″++″ (≧20% = ++)”. With “66 (FLDENIGGVAV; listed as Homo sapiens) [compound 66]”, the Peptide exchange result is “″+++″ (≧50% = +++)”. The same measure for “67 (TLLAEALVTV; listed as Homo sapiens) [compound 67]”: “″+++″ (≧50% = +++)”; for “68 (SLMELPRGLFL; listed as Homo sapiens) [compound 68]”: “″++++″ (≧75% = ++++)”. Consider “69 (FQLDPSSGVLVTV; listed as Homo sapiens) [compound 69]”, for which the Peptide exchange result was “″+++″ (≧50% = +++)”.

Consider “70 (GLLDYPVGV; listed as Homo sapiens) [compound 70]”, for which the Peptide exchange entry is given as “″+++″ (≧50% = +++)”. As to “71 (GILARIASV; listed as Homo sapiens) [compound 71]”, the Peptide exchange entry is “″+++″ (≧50% = +++)”. Consider “72 (SLLELDGINL; listed as Homo sapiens) [compound 72]”, for which the Peptide exchange entry is reported as “″+++″ (≧50% = +++)”. As for “73 (NIFDLQIYV; listed as Homo sapiens) [compound 73]”, the entry is “″+++″ (≧50% = +++)”. As for “74 (ALLDPEVLSIFV; listed as Homo sapiens) [compound 74]”, the Peptide exchange entry is recorded as “″+++″ (≧50% = +++)”. The same measure for “75 (GLLEVMVNL; listed as Homo sapiens) [compound 75]”: “″+++″ (≧50% = +++)”; for “76 (ILIDSIYKV; listed as Homo sapiens) [compound 76]”: “″+++″ (≧50% = +++)”. Take “77 (ILVEADGAWVV; listed as Homo sapiens) [compound 77]”: the Peptide exchange result is “″++++″ (≧75% = ++++)”. The same measure for “78 (SLFSSLEPQIQPV; listed as Homo sapiens) [compound 78]”: “″+++″ (≧50% = +++)”; for “80 (FLYDNLVESL; listed as Homo sapiens) [compound 80]”: “″++″ (≧20% = ++)”. The same measure for “81 (FLFSQLQYL; listed as Homo sapiens) [compound 81]”: “″++″ (≧20% = ++)”. As for “82 (FLSSVTYNL; listed as Homo sapiens) [compound 82]”, the entry is “″+++″ (≧50% = +++)”; as for “83 (ILAPTVMMI; listed as Homo sapiens) [compound 83]”, “″+++″ (≧50% = +++)”; as for “84 (VTFGEKLLGV; listed as Homo sapiens) [compound 84]”, “″++″ (≧20% = ++)”. On to “85 (KMSELRVTL; listed as Homo sapiens) [compound 85]”, for which the Peptide exchange result is recorded as “″+++″ (≧50% = +++)”. Turning to “86 (NLIGKIENV; listed as Homo sapiens) [compound 86]”, the Peptide exchange result was “″+++″ (≧50% = +++)”.
